In PMC8118686, “Identification of a RAD52 Inhibitor Inducing Synthetic Lethality in BRCA2-Deficient Cancer Cells” (Frontiers in Pharmacology, 2021):

Target: the molecule itself
Experiment: cross-linking; called EMSA by the paper: 1 uM 6His-RAD52 in 25 mM HEPES pH 7.5, 1 mM DTT, 10 mM MgCl2, 150 mM NaCl, 0.1 mg/ml BSA, 37 °C; with or without 400 uM 50-nt ssDNA oligo and 100 uM C791-0064; 0.1% glutaraldehyde 3 min; 4-20% SDS-PAGE, Western blot with anti-Histag

B1: Human 6His-RAD52 protein (natural protein, UniProt P43351 1-418, looked up)
chain: MSGTEEAILGGRDSHPAAGGGSVLCFGQCQYTAEEYQAIQKALRQRLGPEYISSRMAGGGQKVCYIEGHRVINLANEMFGYNGWAHSITQQNVDFVDLNNGKFYVGVCAFVRVQLKDGSYHEDVGYGVSEGLKSKALSLEKARKEAVTDGLKRALRSFGNALGNCILDKDYLRSLNKLPRQLPLEVDLTKAKRQDLEPSVEEARYNSCRPNMALGHPQLQQVTSPSRPSHAVIPADQDCSSRSLSSSAVESEATHQRKLRQKQLQQQFRERMEKQQVRVSTPSAEKSEAAPPAPPVTHSTPVTVSEPLLEKDFLAGVTQELIKTLEDNSEKWAVTPDAGDGVVKPSSRADPAQTSDTLALNNQMVTQNRTPHSVCHQKPQAKSGSWDLQTYSADQRTTGNWESHRKSQDMKKRKYDPS
notes: RAD52, human; The size of the oligomer is not measured here; heptamer is only cited
B1: binds.
